Substitutions are numbered along the chain they refer to.
Columns and labels:
[1] = target: T1, Rv0792c G80D G80D (Mycobacterium tuberculosis) (UniProt O86331); assay: ALISA
T1 sequence: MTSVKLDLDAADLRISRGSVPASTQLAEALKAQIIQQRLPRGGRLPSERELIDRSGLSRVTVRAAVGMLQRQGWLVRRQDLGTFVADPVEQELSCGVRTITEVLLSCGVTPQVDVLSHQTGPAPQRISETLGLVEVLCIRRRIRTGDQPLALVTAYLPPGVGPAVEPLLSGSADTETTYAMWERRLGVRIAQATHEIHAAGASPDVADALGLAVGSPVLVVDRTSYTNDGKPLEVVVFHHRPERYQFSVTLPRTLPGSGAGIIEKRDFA

[2] = target: T2, Rv0792c R49A R49A (Mycobacterium tuberculosis) (UniProt O86331); assay: ALISA
T2 sequence: T1 sequence with R49A, D80G

**Q.** For “TCTAGTCATTCGTCATAATCCCATCTGTTTCTTCCTCCTTCCGT [Rv0792c_2 aptamer (printed Rv0729c_2)]”, which Kd [1] is on record?
**A.** Its Kd is 120 nM.

**Q.** And the Kd [2]?
**A.** The Kd was 74 nM.
